Test results reported in US20240002477A1 (UNIVERSITY OF CHICAGO, published 2024).
Changes are numbered by the printed parent chain.

B1: S20-74 (antibody, V domains shown)
VH: QVQLQESGPGLVKPSETLSLTCTVSGGSISSHYWSWIRQPPGKGLEQIGYMYYSGSTNYNPSLKSRVIISVDTSKNQFSLKLSSVTAADTAVYYCAGRDQLLYGADGFDIWGQGTMVTVSS
VL: QSALTQPPSASGSPGQSVTISCTGTSSDVGGYNYVSWYQQHPGKAPKLMIYEVSKRPSGVPDRYSGSKSGNTASLTVSGLQAEDEADYYCSSYAGSSNHVIFGGGTKLTVL
notes: recombinant human IgG1
B2: S24-278 (antibody, V domains shown)
VH: QVQLVQSGAEVKKPGASVKVSCKASGYTFTGYYMHWVRQAPGQGLEWMGWINPNSGDTNYAQKFQGWVTMTRDTSLSTAYMELSRLKSDDTAVYYCARVGVGEYSGRHYYYYGMDVWGQGTTVTVSS
VL: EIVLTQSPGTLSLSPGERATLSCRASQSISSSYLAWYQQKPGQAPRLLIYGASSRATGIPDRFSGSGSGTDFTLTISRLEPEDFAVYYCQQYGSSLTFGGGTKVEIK
notes: recombinant human IgG1
B3: S24-636 (antibody, V domains shown)
VH: EVQLVESGGGLVQPGGSLRLSCAASGFTLSSYWMSWVRQAPGKGLEWVANIKQDGSEKYYVDSVKGRFTISRDNAKNSLYLQMNSLRAEDTAVYYCARDLTATWFDPWGQGTLVTVSS
VL: QTVVTQEPSFSVSPGGTVTLTCGLSSGSVSTSYYPSWYQQTPGQAPRTLIYSTNKRSSGVPDRFSGSILGNKAALTITGAQADDESDYYCVLYMGSGMSVFGGGTKLTVL
B4: S24-1224 (antibody, V domains shown)
VH: QVQLVQSGAEVKKPGASVRVSCKASGYTFTSYYIYWVRQAPGQGLEWMGVINPSGGSTSYAQKFQGRVTLTRDTSTSTVYMDLSSLRSEDTAVYYCARDPIMWEVVTRGRGNWFDPWGQGTLVTVSS
VL: QSVLTQPPSVSGAPGQRVTIPCTGSSFNIGAGYDVHWYQQLPGTAPKLLIFGNSNRPSGVPDRFSGSRSGTSASLAITGLQAEDEADYYCQSYDSSLSGVVFGGGTTLTVL
notes: recombinant human IgG1
B5: S24-1345 (antibody, V domains shown)
VH: QLQLQESGPGLVKPSETLSLTCTVSGGSISSSSYYWGWIRQPPGKGLEWIGSIYYSGSTYYNPSLKSRVTISVDTSKNQFSLKLSSVTAADTAVYYCARRIRRPTSEVVITYVFDYWGQGTLVTVSS
VL: AIQLTQSPSSLSASVGDRVTITCRASQGISSALAWYQQKPGKAPKLLIYDASSLESGVPSRFSGSGSGTDFTLTISSLQPEDFATYYCQQFNSYLTFGGGTKVEIK
B6: S24-1378 (antibody, V domains shown)
VH: EVQLVESGGGLVQPGGSLRLSCAASGFTVSSNYMSWVRQAPGKGLEWVSVIYSGGSTYYADSVKGRFTISRHNSKNTLYLQMNSLRAEDTAVYYCAREGYCTNGVCYRHAFDIWGQGTMVTVSS
VL: B3 VL with K55T, M98I
notes: recombinant human IgG1
B7: S24-1384 (antibody, V domains shown)
VH: EVQLVESGGGLVQPGGSLRLSCAVSGFTFSSYSMNWVRQAPGKGLEWVSYISSSSSIIYYADSVKGRFTISRDNAKNSLYLQMNSLRAEDTAVYYCARDFLDYSRSYSYGMDVWGQGTTVTVSS
VL: SYVLTQPPSVSVAPGQTARITCGGDNIGSKNVHWYQQKPGQAPVLVVFDDSDRPSGIPERFSGSNSGNTATLTISRVEAGDEADYYCQVWDSSSDHYVVFGGGTKLTVL
B8: S144-67 (antibody, V domains shown)
VH: EVQLVQSGAEVKKPGESLKISCKGSGYSFTTYWIAWVRQMPGKGLEWVGIIYPDDSDTRYSPSFQGQVTISADKSIGTAYLQWSSLKASDTAMYYCARGQYYDFWSGAGGVDVWGQGTTVTVSS
VL: QSVLTQPPSVSGAPGQRVTISCTGSRSNIGAGYDVQWYQQVPGTAPKLLISGNSNRPSGVPDRFSGSKSGTSASLAITGLQAEDEADYYCQSYDSSLSGLRVFGGGTKLTVL
notes: recombinant human IgG1
B9: S144-69 (antibody, V domains shown)
VH: EVQLVQSGAEVKKPGESLKISCKGSGYSFTSYWIGWVRQMPGKGLEWMGIIYPGDSDTRYSPSFQGQVTISADKSITTAYLQWSSLKASDTAMYYCARTQTTNWFDSWGQGTLVTVSS
VL: DIQMTQSPSTLSVSVGDRVTITCRASQSVSSWLAWYQQKPGKAPKLLIYDASSLESGVPSRFSGSGSGTEFTLTISSLQPDDFATYYCQQYNSFYTFGQGTKLEIK
notes: recombinant human IgG1
B10: S144-175 (antibody, V domains shown)
VH: QVQLVQSGAEVKKPGASVKVSCKASGYTFTGYYMHWVRQAPGQGLEWMGRINPNSGGTNFAQRFQGRVSMTRDTSISTAYMELSSLRSDDTAVYYCARGAKFEHLPFDIWGQGTMVTVSS
VL: QSMLTQPPSASGTPGQRVTISCSGSSSNIGSNYVYWYQQLPGTAPKLLIYRNNQRPSGVPDRFSGSKSGTSASLAISGLRSEDEADYYCAAWDDRRWVFGGGTKLTVL
notes: recombinant human IgG1
B11: S144-208 (antibody, V domains shown)
VH: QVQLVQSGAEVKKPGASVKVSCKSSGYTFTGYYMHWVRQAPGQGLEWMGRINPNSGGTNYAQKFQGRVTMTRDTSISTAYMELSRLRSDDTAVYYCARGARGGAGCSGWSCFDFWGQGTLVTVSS
VL: QSALTQPRSVSGSPGQSVTISCTGTSSDVGGYKYVSWYQQHPGKAPKLMIYDVSKRPSGVPDRFSGSKSGNTASLTISGLQAEDEGDYYCCSYAGTYSLVFGGGTKVTV
notes: recombinant human IgG1
B12: S144-466 (antibody, V domains shown)
VH: EVQLVQSGAEVKKPGESLKISCKGSGYRFTRYWIGWVRQMPGKGLEWMGIIYLGDSETRYSPSFQGQVTISADNSISTAYLQWSSLKASDTAMYYCARSSNWNYGDYWGQGTLVTVSS
VL: DIQMTQSPSTLSASVGDRVTITCRASQSITSWLAWYQQKSGKAPKLLIYDASSLESGVPSRFSGSGSGTEFTLTISSLQPDDFATYYCQQYNSYPWTFGQGTKVEIK
notes: recombinant human IgG1
B13: S144-509 (antibody, V domains shown)
VH: EVQLVQSGAEVKKPGESLKISCKGSAYTFTTYWIGWVRQMPGKGLEWMGIIYPGDSDTRYSPSFQGQVTISADKSISTAYLQWSSLKASDTAMYYCARLLLVAGPFDYWGQGTLVTVSS
VL: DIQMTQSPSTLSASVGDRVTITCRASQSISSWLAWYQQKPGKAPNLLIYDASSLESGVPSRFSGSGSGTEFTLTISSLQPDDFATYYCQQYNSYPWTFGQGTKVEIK
notes: recombinant human IgG1
B14: S144-588 (antibody, V domains shown)
VH: QLQLQESGPGLVKPSETLSLTCTVSGGSISSSSYYWGWIRQPPGKGLEWIGSIYYSGSTYYNPSLKSRFTISVDTSKNQFSLKLSSVTAADTAVYYCAAYQRKLGYCRGNSCFSCFDPWGQGTLVTVSS
VL: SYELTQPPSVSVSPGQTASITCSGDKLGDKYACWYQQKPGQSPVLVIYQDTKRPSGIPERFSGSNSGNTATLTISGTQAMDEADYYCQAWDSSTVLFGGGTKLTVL
notes: recombinant human IgG1
B15: S144-741 (antibody, V domains shown)
VH: QVHLVQSGAEVKKPGASVKVSCKASGYTFTGYYMNWVRQAPGQGLEWMGRINPNSGGTNYAQKFQGRVTMTRDTSISTAYMELSRLRSDDAAVYYCARAERYSSSWYNLYYWGQGTLVTVSS
VL: not shown
notes: recombinant human IgG1
B16: S144-843 (antibody, V domains shown)
VH: QVQLVESGGGVVQPGGSVRLSCAASGFDFTNNGMYWVRQAPGKGLEWVAFIRYDGNKQDYADSVKGRFTISRDNSKNTLYLQMSSLRPEDTAVYYCAKGVYTENYGWGQGTLVTVSS
VL: EIVLTQSPGTLSLSPGERATLSCRASQTVTSRYLAWYQQKPGQAPRLLIYGASTRATGIPDRFSGSGSGTDFTLTISRLEPEDFAVYYCQQYGNSPPYTFGQGTKLEIK
notes: recombinant human IgG1
B17: S144-1079 (antibody, V domains shown)
VH: QVQLVQSGAEVKKPGSSVKVSCKASGDTFGSYSITWVRQAPGQGLEWMGRIIPVLGIANYAQKFQGRVTITADKSTSTAYMELSSLRSEDTAVYYCAGGGCSGGNCYSWYNWFDPWGQGSLVTVSS
VL: EIVLTQSPGTLSLSPGERATLSCRASQSVSSNYLAWYQQKPGQAPRLLIYGASSRATGIPERFSGSGSGTDFTLTISRLEPEDFAVYYCQQYGRSPYTFGQGTKLEIK
notes: recombinant human IgG1
B18: S144-1299 (antibody, V domains shown)
VH: QVQLQESGPGLVKPSETLSLTCTVSGGSISSYYWSWIRQPPGKGLEWIGYINYRGITNYNPSLKSRVTISVDMSKNQFSLKLSSVTAADTAVYSCARLAVASRGTVDYWGQGTLVTVSS
VL: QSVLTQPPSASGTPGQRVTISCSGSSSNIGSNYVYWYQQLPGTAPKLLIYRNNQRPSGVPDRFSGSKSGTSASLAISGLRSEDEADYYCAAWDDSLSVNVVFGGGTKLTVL
notes: recombinant human IgG1
B19: S144-1406 (antibody, V domains shown)
VH: QVQLVQSGAEVKKPGASVKVSCKASGYTFTTYAMHWVRQAPGQRLEWMGWINAGNGNTKYSQNFQGRVTITRDTSASTAYMELSSLRSEDTAVYYCASLVGGDSSSWYDYMDVWGKGTTVTVSS
VL: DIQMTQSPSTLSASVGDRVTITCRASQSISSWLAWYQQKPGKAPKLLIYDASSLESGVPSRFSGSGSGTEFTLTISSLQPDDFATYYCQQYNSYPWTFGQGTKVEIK
notes: recombinant human IgG1
B20: S564-14 (antibody, V domains shown)
VH: EVQLVESGGGLVQPGGSLRLSCAASGLTFSSYWMSWARQAPGKGLEWVANIKKDGSEKYYVDSVKGRFTISRDNAKNSLYLQMNSLRVEDTAVYYCASEPPHYGGNSGAEYFQHWGQGTLVTVSS
VL: SYVLTQPPSVSVAPGKTARITCGGNNIGSKSVHWYQQRPGQAPVLVIYYDSDRPSGIPERFSGSNSGNTATLTISRVEAGDEADYYCQVWDSSSDHHYVFGTGTKVTVL
notes: recombinant human IgG1
B21: S564-138 (antibody, V domains shown)
VH: QVLLVQSGAEVKKPGASVKVSCKASGYTFTGYYLHWVRQAPGQGLEWMGWINPISGGTNYAQNFQDRVTMTRDTSIITAYMELSRLRSDDTAVYYCARLAYYYDSSAYRGAFDIWGQGTMVTVSS
VL: QSALTQPASVSGSPGQSITISCTGTSSDVGGYNYVSWYQQHPGKAPKLMIYEVSNRPSGVSDRFSGSKSGNTASLTISGLQAEDEADYYCSSYTSSSTYVFGTGTKVTVL
notes: recombinant human IgG1
B22: S564-152 (antibody, V domains shown)
VH: QVQLVESGGGVVQPGRSLRLSCAASGFTFSYYGMHWVRQAPGKGLEWVAVIWYDGSNKHYADSVKGRFTISRDNSKNTLYLQMNSLRAEDTAVYYCAKNAAPYCSGGSCYGTYFDYWGQGTLVTVSS
VL: DIQMTQSPSSLSASVGDRVTITCQASQDINNYLNWYQQKPGKAPKLLIYDASNLETGVPSRFSGSGSGTDFTFTISSLQPEDIATYYCQQYDNVPPHTFGQGTKLEIK
notes: recombinant human IgG1
B23: S564-287 (antibody, V domains shown)
VH: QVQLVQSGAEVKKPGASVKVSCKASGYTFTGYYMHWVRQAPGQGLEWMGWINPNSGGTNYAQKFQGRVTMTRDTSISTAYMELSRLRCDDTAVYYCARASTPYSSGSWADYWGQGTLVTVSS
VL: B21 VL with E52D, D62N, T94A, Y99W, T103G, V107L
notes: recombinant human IgG1

What was measured:
[1] = biological target: SARS-CoV-2 spike receptor-binding domain (SARS-CoV-2, UniProt P0DTC2 319-541); test: mAb table, Specificity column (recombinant IgG1; ELISA)
[2] = biological target: T1, SARS-CoV-2 ORF8 protein (SARS-CoV-2, UniProt P0DTC8 16-121); test: as above
T1 construct: domain: Ig-like domains; also called open reading frame 8
T1 sequence (P0DTC8 16-121, tags left off): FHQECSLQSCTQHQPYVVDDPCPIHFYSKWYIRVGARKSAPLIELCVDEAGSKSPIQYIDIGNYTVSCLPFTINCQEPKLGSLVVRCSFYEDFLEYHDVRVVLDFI

| Binder | binding result [1] | binding result [2] |
| --- | --- | --- |
| B1 | binds | – |
| B2 | – | binds |
| B3 | – | binds |
| B4 | binds | – |
| B5 | – | binds |
| B6 | – | binds |
| B7 | binds | – |
| B8 | binds | – |
| B9 | binds | – |
| B10 | – | binds |
| B11 | – | binds |
| B12 | binds | – |
| B13 | binds | – |
| B14 | – | binds |
| B15 | – | binds |
| B16 | – | binds |
| B17 | binds | – |
| B18 | – | binds |
| B19 | binds | – |
| B20 | binds | – |
| B21 | binds | – |
| B22 | binds | – |
| B23 | – | binds |
